Reference: the DeepSol protein solubility set

Experiment: soluble on expression in E. coli; label from the status in PepcDB or PDB records

Soluble on expression in E. coli, soluble:
MGDDLPDWRNKLEPVFLEFEDGCVPEEHYYPCIRRREDEEPKISAEEEYYLMVKEVEDSKGFDIDFAKFRCVFNYRPVDLDDNELALEPETTREFMDRLCRKSLEHFNEIHSTKYEFVRFIKANHHVSAGMMYFITFEGKLLSNDDDSKQFQAKLCYCGGTPEIISCELKP
MKKFDVAIVGGGLAGLTASIYLAKVGRKVIVLEKSSQFGGRGMTTNKNGICMNLGAHALYRGGAAFITFNELGMTLPGGIPSTKAHGIWKGDIFTIPTDFRSILSTPLLSWSAKVQFSRLMIRLGNLDVGEVPKMSLTTWAENEIKDPMVRNIFYALCRTTTYTFAPTIQLASSVLKQIQLSIKEGVLYVDGGWETIITKLRAIANDIGVQFLAKKHVVEIEHSEGKQRIHCVDDEVFEVGTVIVTTPPKEACKIIKGAEGTSLHKWSEQSVPVTVGALDIGLRQLPNPTHQFVLGLDQPIFFTNQSRAAKLSEDGSIAVSLIKYHNPVLEMNHIHEDKEQLESTMELLHSNWKREVVAQQYLPKITVVHDFPHIDRVEKPGPNIPEMPGVYVAGDWAGHDEILADAAVASGKRAALHILKQYESEAVHHGNGAVILEHHHHHH
MERLKIQVLVDNNTYIDRYFVGEPAVSYYIEIDGNRILFDSGYSDVFISNAEKLNIDLGNLTHVVFSHGHNDHTRGIQFLENRYDLSTVELVSHPNCFIPRKHGEKSIGAPFSAEEIKNIFMYNPKDKPFNLSKNCVFLGEIPSINDFEKRAKIGKCKIGDLWEDDYVLDDSAIVCKTDKGIFIVTGCSHSGICNIVEYAKKVCGDDRVIGILGGFHLFELNNRLDSTIQYLDKEEIRMLYPCHCVSFKVKAKMNEILNINEVGVGLTISILEHHHHHH
MSLRLVKTALTIAGSDSGGGAGIEADLKTFTAFGVHGLVAITSVTAQNTQAVTAIHDIPPDVVSEQIRAVAEDIGVDAAKTGMLSNAEIIKAVAKTVKNYDFPLVVDPVMIAKSGAPLLREDAVDALIKYILPLATLVTPNRFEAEKLSGMKIRTVEDAKIAAKKIAEETGAKAVIVKGGHIEGEEAIDVLYHNGSYRLYRAPKVEGCTHGTGCSFSAAITANLAKGFGLEDAIEVAKKFITLGIAMGHRIGHGHCPVNQSAWIEIPAEKWRIYEELTRAVREFEEMNPVKFIPEVGTNFVYSLPLPYARTRDDVAGVKGRIVRVGNEVRAVGPVEFGASDHLARAVLTFMKFYPEYRSAINIRYSEETVRLAEEQGLVVSFYDRREEPEEIKEREGATIPWGIESAIKRVKQRPDVIYHLGDVGKEPMILIFGRNPREVLDKLRLEGHHHHHH

Soluble on expression in E. coli, not soluble:
MAHHHHHHMSSTVTGQAIPKLFPKAFHSWVGTGRIFNFLAPYEQNRVIAYLNSIYNTAPLFKWSLSIVPLYGIVSGYPPVEKIDFNSSAALCATGMVWFVYALLIQPQNSGSRSLALVNICLATVNGYNCYRSAQHKRRQAVNANRIE
MGSDKIHHHHHHMDTLFTINACKTFGCRNLGLPSAAEYHFPNFRLGYPALYCAACGSYPPLFNEREFRPWLAAYLTDHARRYGYFCPVCYQRDIIRYGRNPQGTQRLQCRHCKKVWTPKFPHIAPIEAPRRICSVPLIAPFQGNAAGQKLYFLLSFDAVRGNVIHLTSNFTPFAVGESLRYRWRGGQADREETDDIIQRISLTEMRFLQRSQFDEIQYGSAMQKRHARGNILRPVIAAHGHFKLLSQRFPEVKTHVIAHECFLRGAAIVAWAPLFRQRQGDLWYVEEEIRNPASPAPWQLLGKTHHGWWQNSWQRWTQEENQKMVCRLAGTVEENAFLPDLAASRRFTIWLKNRPAFAQSALYSAGRVTQIVASLVQEYNATLTAAAPGG
MIPTATYRLQFRNGMTFDRAAALVPYLKNLGISHLYASPIFTATKASTHGYDVTDANEIEPSIGGREGFERLVAELKAQGLGLIIDIVPNHMASSLENAWWRDVLEYGKESRYARHFDIDWSRRLTLPFLGDTFDAVLENGEIAIKPDPATGKPAFAYYDNYYPLAPATWQGREAEILALTDKAAIADLHERQPWKLMSWRDAARSLSYRRFFEVTGLVGMRVEDKTVFDDTHRLILELVRTGAVDGLRIDHIDGLADPKAYLARLRQEVGPACYITVEKILAKGEQLPDDWPVSGTTGYEFIASLAEVLVDDEQIDNLRQAYETVKGAPVDMRAELRAAKLLMVDRNFEGEFTRLLALALSIASELQIAQEESVVRQALRELLIAFPVYRTYGTAEGLPPTDICLLHRIVERVKTLETPPQPEALTFLSRLLTGDVPASSQEEATQFRVRFQQLTGPLMAKSVEDTLFFRQNMGLALNEVGAEPVTHHFSIERFHHEMKTRQARQPDALSGTSTHDTKRGEDARARLYTLTEAPEQWSECLARWRQMNQTHVKFLNDGTAPKSADTWMLYQALTGVWPPVLQPQDETGLNALKTRFEAFVEKALREAKLRTDWVDSNEAYETAMLDYARYLLAPDNQTFLQDFYRSLQPFIRAGLVNSLTQTVIKLTAPGVPDIYQGSEALNFSLVDPDNRREPDFATLAQQLDQLTPGVFSREESWLNGQVNQYVTAALLRLRQQNHELFRFGDYIPLRAVGQRADKVIAYARVNHDDALIVVAPRLVFAECDGLLSQSHSGFWSGTDIIIPGQLNQHRYRNVLTQERLMPGERLSLASHQGGVLVLMSD
MASMNDFIGRWKLVQTENFDEYMKEIGVGLITRKAAAHLKPILEIRLDGETWNFDQFSTFKNTKLSFKLGEEFVENSPDDRTYNSLFTFENGKLTHRQNKIKENHKSSVLTTWLENGKLIQTYQSGDVICRREWERE
ERGKFAAVFNDITERRLMEDELRRQEQSHRLVLDNIPDIIARFDRELRHLYVSAAITRVTGFPPEHFIGRTNREIGMPDELVDRWDAAINEVFSSGREQRLEFTYQSPRGLRHFETTLIPERGADDSSAAVLVVNHD
MGSDKIHHHHHHMAEQENSKDLISVLWSGADVLRSKMDANEYKNYLLGIVFYKYLSDSFLIRVYDLINDEKPESLKVALEAYKNELKGEYANDLLDELKQDRKYVIEPELTYTCFAEDARNNCFNREQLQKAFNNIEQSGELFVDLFSDIDLYSSRLGAGDQKQSDTIAELIKVIDQADLLNSDGEILGDAYEYLIGQFASETGKKAGEFYTPQAVSKILTRIAITGQENVKGLSIYDPCMGSGSLLLNAKRYYKGDTNYIKYYGQELNMSTYNLARMNMFLHDVAAENQNLHHGDTLDADWPTGEETDFHMVLMNPPYSAKWSAASGFLQDERFSEYGVLAPKSKADYAFLLHGLYHLKSNGTMAIVLPHGVLFRGAAEGKIREKLLRSGNIYAVIGLPANLFYNTSIPTCIVVLKKHRDGRDVLFIDASKKFIKGKKQNEMSDEHIDEVMDLYNRRETVDKESYLASFDDIEKNDFNLNIPRYVDNFEKEEEVDINGLLEDMQKTDDEIGKVEGEFVNLLKDLTSSDENIMASLNRYIDMIEG
MDVRIRAIDERSYLNIISAIFKDLGLPQLIDRLVPVDRQCQTRTSDIVSLIILDILSGRQALVHLERWAHDIDWPKWIRPGPDPSWFNDDAIARHLDRLYEANIHQVLSSCLVQIDKKEGLSLRVFHADATDKTVYGAYESDSSDVLHITYGYNRHHRWQKPIGFGLIGNEDGIPFYGDVHDGNLSDKAWNPEVLSRIHEQFKQAKIDDEWMYVADSVAMTKETLAQTKAANAFLITRGPSSLRIVKTALSEADAQPDSAWSAPLRWPRKTAPRIGYGKRPRPMKAAPYG
IGDLSYSVSGNIATNNNEIVTLAGSDNMIQNGGDVVRYILKEGEAIGSYYGLETDGLYTQEEIDAGHYYKYGRKPNAGDIKYVPQRENVEWGDDITDDDRTIIGKDVPDFTYGININLQWKNFELSAFGQGVSGTSVAFESEQVFAFMLNSNPRKYHLSRWNEDNPNPNAACPRLYGGNYYDEYNKHFSDYQLFDADYFRIKTISLGYMVPKDAVTRWGLSSLKFFLTGENLFTFRADKDMKDFDPESSTGRGISAFGAKSVAFGVNVSF
MAHPQEIREKLRRLYVSGEQTLETAALMCEIPQTTARAWKRADKEKGDDWDKMRAAYTLAGGGIEDLSRAMLAGFMVQYNSTMTMLQDSSTEDLPPSDRAKLLASLADAFTKTVSANARVMPETSKLATALELIEFLMAFVQEKHPKHLPAFVEVLEPFGVEVEKKFG
MGHHHHHHSHMRLSQKWQVINQRSLLCGEDEAADENPESQEMLEEQLVRMLTREVMDLITVCCVSKKGADHSSAPPADGDDEEMMATEVTPSAMAELTDLGKCLMKHEDVCTALLITAFNSLAWKDTLSCQRTTSQLCWPLLKQVLSGTLLADAVTWLFTSVLKGLQMHGQHDGCMASLVHLAFQIYEALRPRYLEIRAVMEQIPEIQKDSLDQFDCKLLNPSLQKVADKRRKDQFERLIAGCIGKPLGEQFRKEVHIKNLPSLFKKTKPMLETEVLDNDGGGLATIFEP
MIVIKPFILACLIVKKRKDILGKCLYSLESIGGEIIIVDNGSTDKKKEIAQKLTDKVYDFKWMNNFVEARNFAASKVSGTWIIAVDADECIDINNFVAAMEEIKSYKDKISIFLVEIMSFVGDNGEEITVNTMARLYKNDGSVYFLWWNV
MGSDKIHHHHHHMARRKEHSHDEIRVMAIEAAIALLQQQGVQGLSLRKIASEIGYVPSTLINIFGSYNYLLLAVSEATLQLLMSHLSAVSENDSLRHIIVMAQKYSEFAHSQRQCFKLVFELQLLESEHLPASQGQLIANLFRLIENELALLFPNETIEQQLQMSRVLWGGIHGLTALSLDNKLFADTVSLPALLESHVTGYLQGMGYQREEACC
MSQIIIKTPQEIEKMRVAGRLAAEVLEMITPFVKEGVTTAELDKICHEYIVKEQDAYPAPLNYHGFPKSICASINHVVCHGIPADKKLKNGDILNIDITVKKDGYHGDTSKMFMIGEPSVMAKKLVEVTHECLWKGIEVVKPGNHFGDIGAAIEKHAKKFGYSIVDAFCGHGIGANFHEPPHVMHHGKAGTGAMFEEGMIFTIEPMINIGKRAVSVLKDGWTAVTKDRSLSAQWEHTILVTKDGYEVLTLREEEKN
MGSDKIHHHHHHMTEKATLAKQILHFNETLSSNSMDLPAGYRVINPYEGDQKELVRNITTRFYQKYYNDTKPRRIIFGSSPARRGSAVTGVPFEDAKHLQSETGIFIDTFYINQSSSDFLYDVMNEYGGCEQFYSDFYMNFVCPLGIVRINAKGNEVNCNYYENKQLREALMPFIIESIRSQIDFGMDTSVCYCIGSGENFKFLSRINEEHHFFETIIPLEHPRFIMQYNSKNKDTYMEKYLCALKI
GLVAPGYKMATVAVDHLLGNTESKFEGADMSAKLKLLGVKVGSIGDANGRTEGCKSYVYQNEEQEVYKRLIVSEDNKKLLGAVLVGDTSDYGDLLQLMLNEIDLPEHPDALILPAHAGAEKPALGADALPESAVICSCFDVTKGKIAQAVADGHHTLGDIK
MIRSTVLILASFALAVNCYECMNNTVVINAPSDISKPVFYPDGWDGQSSTPQISENQQCVMTINVPTGYYATVTFYKHFTEPGGYLYFPSRKIELLQNDDYNPYIFPSPMVKINIGTDNRNDVMNQFGFKVVYSKYPTLEKNIINIDLGSPPVAAKPSEKLTTFVGDRNSMMSLMGFTMADNSKNYLLRQTAIFGGDSTDSTYIGSLSQILNSQQILTTYGNKISVYTFGLDKLIDYPLFMGQNQVDTMGLLKYNGANCPSTGNCNVTLNGNWGAHVVVVTSYDGPETIKSFDSFPDTGVLNVYENNVSNTTCIATLNKFNYLQQLPLQVNGNMKFYELRAGGVYNMVVTRDTSRASRHQI
